Experiment: yeast display, Sf9 membrane polyspecificity reagent, FACS + sequencing; frameworks hold sequencing errors
Outline: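 A nanobody's polyreactivity label depends on the gate it was sorted from. Yeast display cells were stained with 10% biotinylated, detergent-solubilized Sf9 membrane reagent for 1 hour at 4 °C, enriched on streptavidin microbeads and sorted by FACS. The low and high (top ~1%) gates were set on anti-HA fluorescence for expression and streptavidin fluorescence for reagent binding.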

Row | Sequence | polyreactivity (PSR sort gate)
1 | QVQLVESAGGLVQAGGRLRLSCAASGFTFVYYVMGWYRQAPGKERELVAAISNSGGSTYYADSVKGRFTISRDNAKNSVYLEMNSLKPEDTAVYYCAAPPGGGKYRGYYYWGQGTQVTVSS | high polyreactivity
2 | QVQLVESGGGLVQAGGSLRLSCAASGRSFKRYDMGGYIQAPGKERELVAAITGTGGSTYYADSVKGRFTISRDNAKNTVYLQMNSLKPEDPADYYCAARLYNTYSGFAFGYWGQGTQVTVSS | high polyreactivity
3 | QVQLVESGGGLVQAGGSLRLSCAASGIIFYRYAMGWYRQAPGKEWELVAAITRRGGSTYYADSVKGRFTISRDNAKNTVYLQMNSLKPEDTGVYYCNARVRYTSADPSYYSWGQGTQVTVSS | high polyreactivity
4 | QVQLQESGGGLVQAGGSLRLSCAASGTIFRISDMGSYRQAPGKELEFVAAITYGANTYYADSGKGRFTISRDNAKNTVYLQMNSLKPEDTAVYYCAVPPVKETILDYWGQGTQVTVSS | low polyreactivity
5 | QVQLVESGGGLVQAGGSLRISCAASGSNFRTYVMGWYRQAPGKERELVAAISRRGGSTYYADSVKGLFTISRDNAKKTVYLQMNSLKPEDTAVYYCAAEDEYSLEFSTLDYWGQGTQVTVSS | high polyreactivity
6 | QVQLVESGGGLVQAGGSLRLSCAASGSIFPSNVMGSYRQAPGKERELVAAISNTGSTNYADSVKGRFTISRDNAKNTVYLQMNSLKPEDTAVYYCNADASYGFWSLLDYDYWGQGTQVTVSS | low polyreactivity
7 | QVQLVESGGGLVQAGGSLRLSCAASGSTFTYNTMGWYRQAPGKERELVAGITKSGGSTYYADSVKGRFTISRDTAKNTVYLQMNSLKPEDTAVYYCATSTSRRYGSRHNYWGQGTQVTVSS | high polyreactivity
8 | QVQLVESVGGLVQAGGSLRLSCAASGSIFSYYAMGWYRQAPGKERELVAAITISGSSTYYADSVKGRFTISRDNAKNTVYLQMNSLKPEDTAVYYCNARTIRNWSGQHIYDYWGQGTQVTVSS | high polyreactivity
9 | QVQLVESGGGLVQAGGSLRLSCAASGLTFGYYAMVWYRQAPGKERELVAAINRSGNTNYADSVKGRFTISRDNAKNTVYLQMNCLKPEDTAVYYCAKRIWSILSPYKSSYGYDYWGQGSQVTVSS | low polyreactivity
10 | QVQLVESGGGLVQAGGSLRLSCASSGRTFYRNAMGWYRQAPGKERELVAAITSGGSTYYADSVKGRFTISRDNAKNTVYLQMNSLKPEDNAVYYCAKRIGWVPSRSWTPAFWGQGTQVNVSS | low polyreactivity
11 | QDQLVESGGGLVQAGGSLRLSCAASGSIFKINAMGWYRQATGKERELVATITWSTGTTYYADSVKGRFTISRDNAKNTVYLQMNSLKPEDTAVYYCATDGDSTKLDYWGQGTQVTVSS | low polyreactivity
12 | QVQLVDSGGGLVQAGGSLRLSCAASGSTFDTNVMGWYRQAPGKERELVAAIDVSGGSTYYADSVKGRFTISRDNAKNTVYLQMNSLKPVDTAVYYCAAEDGQYGMDYWGQGTQVSVSS | low polyreactivity
13 | QVQLVESGGGLVQAGGSLRLSCAASGRIFGVYAMGWYRQAPGKERELVAAISSGASTYYADSVKGRFTISRDNAKNTVYLQMNSLKPEDTAVYYCAKSVKGGTGYYYWGQGTQVTVSS | low polyreactivity
14 | QVQLVESGGGLVQAGGSLRLSCAASGSTFYAYAMGWYRQAPGKERELVAVITSSGSTYYADSVKGRFTISRDNAKNTVYLQMNSLKPEDTAVYYCARVSYRGYGYWGQGTQVTVSS | high polyreactivity
15 | QVQLVESGGGLVQAGGSLRLSCAASGSIFTPYAMGWYRQAPGKERELVAAISRSGGSTYYADSVKGRFTISRDKAKNTVYLQMNRLKPADSAVYYCAADVQTLITLGQFDYWGQGTQVTVSS | low polyreactivity
16 | QFQLAESGGGLVQAGGSLRLSCAASGFTFRDYAMGWSRQATGKERELVATISWRGGSTYYADSVKGRFTISRDNAKNTVYLQMNSLKPEDTAVYYCAKRPYQRSVPYGKYDYWGQGTQVTVSS | low polyreactivity
17 | QVHLVESGGGLVQAGGSLRISCAASGLIFPDYTMGWYRPAPGKESELVAVITDGDSTYYADSVKGRFTISRDNAKNTVYLQMNSLKPEDTAVYYCASELDGSKYTLDYWGQGTQVTVSS | low polyreactivity
18 | QVQLVESGGGLVQAGGSLRLSCAASGFIFARNTMGWYRQAPGKERELVAAITKSGGSTNYADSVKGRFTISRDNAKNTVYLQMNSLKPEDTAVYYCAARTYTLRGVYFSGYNYWGQGTQVTVSS | low polyreactivity
19 | QVQLVESGGGLVQAGGSLRLSCAASGSILWYYAMGWDRQAPGKERELVATITSGGSTYYADSVKGRFTISRDNAKNSVYLQMNSLKPEDTAVYYCNADLAVDEYDYWGQGTQVTVSS | low polyreactivity
20 | QVPLVESGGGLVQAGGSLRLSCAASGITIRGYAMGWYRQAPGKDRELVAAINTRTSTYYADSVKGRFTISRDNAKHTVYLQMNSLKPEDTAVYYCNRDPVYYDYDYWGQGTQVTVSS | low polyreactivity
21 | QVQLVESGGGLVQAGGSLRLSCAASGSTFGENAMGWYRQAPGKERELVAGINSTGGSTYYADSVKGRFTISRDNAKNTVSLQMNSLKPEDTAVYYCAAGDWYSGNTSHFYYWGQGTQVTVSS | low polyreactivity
22 | QVQLVESGGGLVQAGGSLRLSCAASGRTFYYYALGWDRQAPAKERELVAAIRWRGGRTYADSVKGRFTISRDNAKNTVYVQMNSLKPEDTAVYYCAVESFYRHASLYDYWGQGTQVTVSS | high polyreactivity

Row | Sequence | polyreactivity (PSR sort gate)
23 | QVQLEESGGGLVQAGGSLRLSCAASGRIFEYYAMGWYRQAPGIERELVAAINTGGNTYYADSVKGRFTISRDNAKNTVYLQMNSLKPEDTAVYYCATYPIWYGGYLSGTDYDYWGQGTQVTVSS | low polyreactivity
24 | QVQLVESGGGLVQAGGSLRLSCAASGLTFSRYAMGWYRQATGKERELVAAITSNGGSTYYADSVKGRFTISRDNAKNTVYLQMNSLKPDDTAVYYCATGYPIDLGREFDYWGQGIQVTVSS | high polyreactivity
25 | QVQLVESGGGLVQAGGSLRLSCAASGSTFVGYAMVWYRQAPGKERELVAAISYSGGSTYYADSVKGRFTISRDNAKNTVYLQMNSLKPEDTAVYYCAAEWSRHYYSGPRYDSWGQGSQVTVSS | low polyreactivity
26 | QVQLVDSGGGLVQAGGSLRLSCAASGITFWDNVMGWYRQATGKERELVATITYRGGSTYADSVKGRFTISRDNAKITVFLQMNSVKPEDTAVYYCNTGVTVDILSYDSWGQGTQVTVSS | low polyreactivity
27 | QVQIVESGGRLDQAGGILRLSCAASGRTFTVNAMGWNRQAPGKERELVATIRSGGTTNYAASVKGRFTISRDNAKNTVYLTMNRLKPEDTAVYYCNARVLTRTSVVRYYYWGQGTQVTVSS | high polyreactivity
28 | QVQLVESGGGLVQAGGSLRLSCAASGRTFVRNAMGWYRQAPGKERELVATIRSGGSTNYADSVKGRFTISRDNAKNTVYLQMNSLKPEDTAVYYCATQGSRARYDYYYWGQGTQVTVSS | high polyreactivity
29 | QVQLVESGGGLVQAGGSLRLSCAASGSIFVLNAMGWYRQAPGKERELVATITWRGGSTYYADSVKGRFTISRDNAKNTVYLQMNSLKPEDTAVYYCAKVDIRHHRFYYWGHGTQVTVSS | low polyreactivity
30 | QVQLQESGGGLVQAGVSLRLSCAASGTIFTARFMAWYRQAPGKERELVATITDGGNTNHADSVKGRFSISRDNAKNTVSLQMNSLKPEYAAVYYCAAGEVDNDTLLFWGQGSQVTVSS | low polyreactivity
31 | QVQLVESGGCLVQAGGSLRLSCAASGSTFYVYTMGWYTQAPGKESELVAAISWTDGDTYYADSVKGRFTISRDTAKKTVYLEMNSLKPEDTAVYYCAADIAWLWWYGPGYDYWGQGTQVTVSS | low polyreactivity
32 | QVQLVESGGGLVQAGGSLRLNCAASGSIFDHYAMGWYRQAPGKERELVAAINIRTGYTYYADSVKGRFTISRDNAKNTVYLQMNSLKPEDTAVYYCNRVVRGFVRHLDYWGQGTQVTVSS | low polyreactivity
33 | QVQLVESGGGLVQAGGSLRLSCAASGITFTGYAMGWYRQAPGKERELVAVISETGGSTYADSVKGRFTISRDNAKNTVYLQMNSLKPEDTAVYYCAADPHDTVRHDALVELEYWGQGTQVTVSS | low polyreactivity
34 | QVQLVESGGGLVQAGGSLRLICAASGGIFYSNARGWYRQAPGKERDFVAAITRSGTSTYYADSVKGRITISRDNAKNTVYLQMNSLKPVDTAVYYCAADYRYRRYRGHVSKLYYWGQGTQVTVSS | low polyreactivity
35 | QVQLVESGGGLVQAGGSLRLSCAASGSIFLYNAMGWYRQAPGKERELVASITYGSGSTYYADSVKGRFTISRDNAKNTVYLQMNSLKPEDTAVYYCAATRYYRHGRYDSWGQGTQVTVSS | high polyreactivity
36 | QVQLVESGGGLVQAGGSLRLSCAASGSIIRTYAMGWYRQAPGKERQLVATITFGGVSTYNADSVKGRFTISRDNAKNTVYLQMNSLKPEDSAVYYCAADVYTRFWRVYRFDYWGQGTQVTVSS | low polyreactivity
37 | QVQLEESGGGLVQAGGSLRLSCAASRRIFGSNAMGWYRQAPAKERELVAVITSGGRTYYADSVKGRFTISRDNAKNTVYLQMNSLKPGDTSVYYCNAYYKAAYDYWGQGTQVTVSS | high polyreactivity
38 | QVQLVESGGGLVQAGGSLRLSCAAYGSNFVFNAMGWYRQAPGKERELVAAISNGDGTNYADSVKGRFTISRDNAKNTVYFQINSLKPEDTAVYYCAAVWTTQIVIEYDYWGQGSQVTVSS | low polyreactivity
39 | QVQLVESGGGLVQAGGSLRLSCAASGFIFASYTMGWYRQAPGKERELVASISRRRGSTYYADSVKGRFTISRDIAKNTVYLQMNILKPEDTAVYYCAAERLTIDYDYWGQGTQVTVSS | high polyreactivity
40 | QVQLVESGGGLVQAGGSLRLSCAASGFTFILYTMGWYRQAPGKERELVAAITWRGGNTYYADSVKGRFTISRDNAKNTVYLQMNSLKPEDSAVYYCAAETYYASWEMDYWGQGTQVTVSS | high polyreactivity
41 | QVQLVESGGGLVQAGGSLRFSCAAYGFIFTQYAMGCYRRAPGKERELVAAISWNGGRTYYADSVNGRFTISRDNEKNTVYLQMNSLKPEDTAVYYCAARIYLSKSFNYWGQGTQVTVSS | high polyreactivity
42 | QVQLVESGGGLVQAGGSLRLSCAASGRTFKYNSMGWYRQAPGKERELVAAITRSGSTYYADSVKGRFTISRDNAKNTVYLQMNSLKPEDTAVYYCNARIVNYGSYYYWGQGTQVTVSS | high polyreactivity
43 | QVQLVESGGGLVQAGGSLRLSCAASGFIFGYYGMGWYRQAPGKERELVAAITDGGSTTYADSVKGRFTISRDNAKNTVYLQMNSLKPEDTAVYYCNAEAGGFDYYGKTYRYGDYWGQGTQVTVSS | low polyreactivity
